Reference: patent US20180237497A1 (CANCER RESEARCH TECHNOLOGY, published 2018)
Like-named read-outs stand apart in the source and are kept apart here.

B1: domain 11^AB3 P1597H K1631W (receptor)
chain: MKSNEHDDCQVTNPSTGHLFDLSSLSGRAGFTAAYSKSGVVYMSICGENENCPPGVGACFGQTRISVGKANKRLRYVDQVLQLVYKDGSHCPSKSGLSYKSVISFVCRPEAGPTNRPMLISLDWQTCTLFFSWHTPLACEQATECSV
notes: See m5
B2: domain 11^AB5 P1597A (receptor)
chain: MKSNEHDDCQVTNPSTGHLFDLSSLSGRAGFTAAYAKGWGVYMSICGENENCPPGVGACFGQTRISVGKANKRLRYVDQVLQLVYKDGSACPSKSGLSYKSVISFVCRPEAGPTNRPMLISLDKQTCTLFFSWHTPLACEQATECSV
notes: See m5
B3: domain 11^AB3 P1597K S1602H (receptor)
chain: MKSNEHDDCQVTNPSTGHLFDLSSLSGRAGFTAAYSKSGVVYMSICGENENCPPGVGACFGQTRISVGKANKRLRYVDQVLQLVYKDGSKCPSKHGLSYKSVISFVCRPEAGPTNRPMLISLDKQTCTLFFSWHTPLACEQATECSV
notes: See m5
B4: domain 11^AB3 Q1569R P1597K (receptor)
chain: MKSNEHDDCQVTNPSTGHLFDLSSLSGRAGFTAAYSKSGVVYMSICGENENCPPGVGACFGRTRISVGKANKRLRYVDQVLQLVYKDGSKCPSKSGLSYKSVISFVCRPEAGPTNRPMLISLDKQTCTLFFSWHTPLACEQATECSV
notes: See m5
B5: domain 11^AB5 P1597S (receptor)
chain: MKSNEHDDCQVTNPSTGHLFDLSSLSGRAGFTAAYAKGWGVYMSICGENENCPPGVGACFGQTRISVGKANKRLRYVDQVLQLVYKDGSSCPSKSGLSYKSVISFVCRPEAGPTNRPMLISLDKQTCTLFFSWHTPLACEQATECSV
notes: See m5
B6: domain 11^AB5 P1597K S1602H (receptor)
chain: MKSNEHDDCQVTNPSTGHLFDLSSLSGRAGFTAAYAKGWGVYMSICGENENCPPGVGACFGQTRISVGKANKRLRYVDQVLQLVYKDGSKCPSKHGLSYKSVISFVCRPEAGPTNRPMLISLDKQTCTLFFSWHTPLACEQATECSV
notes: See m5
B7: domain 11^AB5 P1597Q (receptor)
chain: MKSNEHDDCQVTNPSTGHLFDLSSLSGRAGFTAAYAKGWGVYMSICGENENCPPGVGACFGQTRISVGKANKRLRYVDQVLQLVYKDGSQCPSKSGLSYKSVISFVCRPEAGPTNRPMLISLDKQTCTLFFSWHTPLACEQATECSV
notes: See m5
B8: domain 11^AB5 P1597K (receptor)
chain: MKSNEHDDCQVTNPSTGHLFDLSSLSGRAGFTAAYAKGWGVYMSICGENENCPPGVGACFGQTRISVGKANKRLRYVDQVLQLVYKDGSKCPSKSGLSYKSVISFVCRPEAGPTNRPMLISLDKQTCTLFFSWHTPLACEQATECSV
notes: See m5
B9: domain 11^AB5 Q1569R P1597H K1631W (receptor)
chain: MKSNEHDDCQVTNPSTGHLFDLSSLSGRAGFTAAYAKGWGVYMSICGENENCPPGVGACFGRTRISVGKANKRLRYVDQVLQLVYKDGSHCPSKSGLSYKSVISFVCRPEAGPTNRPMLISLDWQTCTLFFSWHTPLACEQATECSV
notes: See m5
B10: domain 11^AB5 Q1569R P1597K (receptor)
chain: MKSNEHDDCQVTNPSTGHLFDLSSLSGRAGFTAAYAKGWGVYMSICGENENCPPGVGACFGRTRISVGKANKRLRYVDQVLQLVYKDGSKCPSKSGLSYKSVISFVCRPEAGPTNRPMLISLDKQTCTLFFSWHTPLACEQATECSV
notes: See m5
B11: domain 11^AB3 Q1569R P1597K S1602H (receptor)
chain: MKSNEHDDCQVTNPSTGHLFDLSSLSGRAGFTAAYSKSGVVYMSICGENENCPPGVGACFGRTRISVGKANKRLRYVDQVLQLVYKDGSKCPSKHGLSYKSVISFVCRPEAGPTNRPMLISLDKQTCTLFFSWHTPLACEQATECSV
notes: See m5
B12: domain 11^AB3 Q1569R P1597K S1602H G1603K (receptor)
chain: MKSNEHDDCQVTNPSTGHLFDLSSLSGRAGFTAAYSKSGVVYMSICGENENCPPGVGACFGRTRISVGKANKRLRYVDQVLQLVYKDGSKCPSKHKLSYKSVISFVCRPEAGPTNRPMLISLDKQTCTLFFSWHTPLACEQATECSV
notes: See m5
B13: domain 11^AB5 T1633A (receptor)
chain: MKSNEHDDCQVTNPSTGHLFDLSSLSGRAGFTAAYAKGWGVYMSICGENENCPPGVGACFGQTRISVGKANKRLRYVDQVLQLVYKDGSPCPSKSGLSYKSVISFVCRPEAGPTNRPMLISLDKQACTLFFSWHTPLACEQATECSV
notes: See m5; HI loop mutant
B14: domain 11^AB5 Q1569R P1597K S1602H (receptor)
chain: MKSNEHDDCQVTNPSTGHLFDLSSLSGRAGFTAAYAKGWGVYMSICGENENCPPGVGACFGRTRISVGKANKRLRYVDQVLQLVYKDGSKCPSKHGLSYKSVISFVCRPEAGPTNRPMLISLDKQTCTLFFSWHTPLACEQATECSV
notes: See m5
B15: domain 11^AB5 P1597N (receptor)
chain: MKSNEHDDCQVTNPSTGHLFDLSSLSGRAGFTAAYAKGWGVYMSICGENENCPPGVGACFGQTRISVGKANKRLRYVDQVLQLVYKDGSNCPSKSGLSYKSVISFVCRPEAGPTNRPMLISLDKQTCTLFFSWHTPLACEQATECSV
notes: See m5
B16: domain 11^AB5 P1597L (receptor)
chain: MKSNEHDDCQVTNPSTGHLFDLSSLSGRAGFTAAYAKGWGVYMSICGENENCPPGVGACFGQTRISVGKANKRLRYVDQVLQLVYKDGSLCPSKSGLSYKSVISFVCRPEAGPTNRPMLISLDKQTCTLFFSWHTPLACEQATECSV
notes: See m5

How the values were obtained:
[1] = target: T1, human IGF2^1-67 (mature insulin-like growth factor 2) (human, UniProt P01344 25-91, biotinylated (site not stated) where immobilised on the chip (Tables 1-4)); test: SPR steady state, biotin-IGF2 on chip, pH 7.4
T1 construct: mature; also called mature IGF2; biotinylated IGF2
Method: (§1) Final kinetic analysis of mutants by SPR was conducted using a Biacore T200 biosensor at 25° C. in either HBS-EP (10 mM HEPES pH 7.4, 150 mM NaCl, 3 mM EDTA, and 0.005% (v/v) surfactant P20) or MES-EP (20 mM MES pH 6.5, 150 mM NaCl, 3 mM EDTA, and 0.005% (v/v) surfactant P20) at a flow-rate of 40 μL min⁻¹. […] For the analysis of the Fc-domain 11^AB5 interaction, approximately 50 RU of a biotinylated IGF2:biotinylated ubiquitin mixture (1:8 proportion) was immobilized on the CM5-streptavidin chip. This interaction was also analysed by immobilizing the Fc-domain 11^AB5 and Fc-domain 11^AB5-RHH (or Fc-domain 11^I1572A as control) by Human Antibody Capture (monoclonal mouse anti-human IgG antibody immobilised on a CM5 chip by amine coupling, GE Healthcare) with and without human IgG1 Fc fragment (Bethyl Laboratories, UK) in the control flow cell. […] T200 BiaEvaluation software (GE Healthcare) was used to fit the resulting curves according to a 1:1 binding model. Steady state affinities were determined using the kinetic data, taking the response average at 5 seconds before injection end and for 5 seconds average. Thermodynamic data was performed across the temperature range of 10° C. to 30° C., van't Hoff and Erying plots generated and ΔH, −TΔS and ΔG values determined as previously described.

[2] = target: T1, human IGF2^1-67 (mature insulin-like …); test: SPR kinetic, biotin-IGF2 on chip, pH 7.4
Method: as §1

[3] = target: T1, human IGF2^1-67 (mature insulin-like …); test: SPR kinetic, biotin-IGF2 on chip, pH 7.4; remark: listed apart in the source
Source text: (§2) Surface plasmon resonance (SPR) binding analysis of recombinant M6P/IGF2R domain 11 mutants interaction with IGF2. Kon indicates association (on) rate; koff, dissociation (off) rate; RU, response units. Binding to IGF2 assessed with BIAcore T200 using purified biotinylated IGF2 and IGF1 on a streptavidin biosensor chip. Recombinant proteins were expressed either in E. coli and/or P. pastoris. All the mutants in the FG and CD loops are on the domain 11^AB5 background for the AB loop unless otherwise stated. All experiments were carried out at 25° C. in HBS-EP buffer (pH 7.4), were repeated 2-5 times on two independent BIAcore chips. nd=not determined. Data for KD expressed as mean of each experiment, and means of kon and koff are shown.
as §1, with “average.” for “average. Thermodynamic data was performed across the temperature range of 10° C. to 30° C., van't Hoff and Erying plots generated and ΔH, −TΔS and ΔG values determined as previously described.”

[4] = target: T1, human IGF2^1-67 (mature insulin-like …); test: SPR steady state, biotin-IGF2 on chip, pH 7.4; remark: listed apart in the source
Source text: as §2
as §1, with “average.” for “average. Thermodynamic data was performed across the temperature range of 10° C. to 30° C., van't Hoff and Erying plots generated and ΔH, −TΔS and ΔG values determined as previously described.”

T1 sequence (P01344 25-91): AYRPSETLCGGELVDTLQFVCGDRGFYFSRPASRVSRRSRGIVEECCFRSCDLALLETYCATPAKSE

Binder	Kd [1]	Kd [2]	koff [2]	kon [2]	Kd [3]	koff [3]	kon [3]	Kd [4]
B1	18.7 nM	17.6 nM	0.348 s⁻¹	1.97e+07 M⁻¹ s⁻¹	–	–	–	–
B2	12.4 nM	9.07 nM	0.0174 s⁻¹	1.9e+06 M⁻¹ s⁻¹	–	–	–	–
B3	5.33 nM	3.73 nM	0.0102 s⁻¹	2.74e+06 M⁻¹ s⁻¹	–	–	–	–
B4	2.27 nM	1.34 nM	0.0241 s⁻¹	2e+07 M⁻¹ s⁻¹	–	–	–	–
B5	4.9 nM	4.19 nM	0.0193 s⁻¹	5e+06 M⁻¹ s⁻¹	–	–	–	–
B6	7.85 nM	4.62 nM	0.0096 s⁻¹	2.09e+06 M⁻¹ s⁻¹	–	–	–	–
B7	4.51 nM	3.83 nM	0.0203 s⁻¹	6.53e+06 M⁻¹ s⁻¹	–	–	–	–
B8	2.21 nM	1.94 nM	0.012 s⁻¹	9.54e+06 M⁻¹ s⁻¹	–	–	–	–
B9	1.95 nM	1.02 nM	0.0115 s⁻¹	1.12e+07 M⁻¹ s⁻¹	–	–	–	–
B10	1.69 nM	0.95 nM	0.0091 s⁻¹	9.59e+06 M⁻¹ s⁻¹	–	–	–	–
B11	1.39 nM	0.79 nM	0.016 s⁻¹	2.01e+07 M⁻¹ s⁻¹	–	–	–	–
B12	1.62 nM	0.78 nM	0.0171 s⁻¹	2.08e+07 M⁻¹ s⁻¹	–	–	–	–
B13	–	–	–	–	26.4 nM	0.0196 s⁻¹	800000 M⁻¹ s⁻¹	53.5 nM
B14	2.11 nM	0.92 nM	0.0073 s⁻¹	7.87e+06 M⁻¹ s⁻¹	–	–	–	–
B15	5.36 nM	4.13 nM	0.018 s⁻¹	4.72e+06 M⁻¹ s⁻¹	–	–	–	–
B16	4.85 nM	3.86 nM	0.015 s⁻¹	4.18e+06 M⁻¹ s⁻¹	–	–	–	–
